Data on two molecules can be found in patent US20110098443A1 (Janssen / Centocor, published 2011).

The target in experiment [1] is T1, human GLP-1 receptor (full length, on cells) (human, UniProt P43220 24-463). Nature of the experiment: displacement of 3 nM 125I GLP-1 from HEK293F cells over-expressing human GLP-1R, overnight at 4 C; IC50 fitted directly from displacement of 3 nM 125I GLP-1.
Experiment [2] concerns the target T1, human GLP-1 receptor (full length, on …). Nature of the experiment: calculated from the 125I GLP-1 displacement IC50, assuming a GLP-1 Kd of 3 nM and competitive inhibition; Ki derived from the IC50, assuming GLP-1 Kd of 3 nM and competitive inhibition.
Experiment [3] shares this target. Nature of the experiment: cell-based or functional assay.
The target in experiment [4] is T2, mouse IL-12 (biotinylated control protein) (mouse, UniProt P43431 23-215; P43432 23-335, biotinylated (site not stated)).
T2 sequence (looked up) 1: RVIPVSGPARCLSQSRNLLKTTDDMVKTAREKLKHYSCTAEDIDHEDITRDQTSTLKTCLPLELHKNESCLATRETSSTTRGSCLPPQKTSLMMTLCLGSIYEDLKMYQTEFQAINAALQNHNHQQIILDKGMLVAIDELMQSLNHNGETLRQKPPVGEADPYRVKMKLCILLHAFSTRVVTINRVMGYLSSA
T2 sequence (looked up) 2: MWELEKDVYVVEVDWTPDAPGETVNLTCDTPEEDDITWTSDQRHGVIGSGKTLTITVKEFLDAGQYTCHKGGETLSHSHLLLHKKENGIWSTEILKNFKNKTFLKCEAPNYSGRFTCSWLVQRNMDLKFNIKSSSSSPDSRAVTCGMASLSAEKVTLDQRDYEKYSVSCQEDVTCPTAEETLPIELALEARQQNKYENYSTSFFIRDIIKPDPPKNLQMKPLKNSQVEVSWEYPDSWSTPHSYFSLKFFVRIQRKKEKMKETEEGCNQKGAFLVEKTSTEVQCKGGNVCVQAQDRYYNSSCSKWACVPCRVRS
Kind of experiment: neutravidin capture ELISA. The method, then:
(§1) The first characterization assay was a neutravidin capture assay. 96-well Maxisorp plates were coated (100 μl/well) with 5 μg/ml of neutravidin in PBS and were incubated at 4° C. overnight. Coated plates were washed with TBST. […] Plates were washed with TBST and blocked with 300 μl/well of 1× Chemiblocker for 1 hour at RT. Plates were washed with TBST. […] Plates were washed with TBST. Plates were treated for 1 hour at RT with 100 μl/well of goat anti-human IgG (H+L)-AP detection antibody diluted 1:5000 in TBST. AttoPhos substrate (1:5) detected AP activity.

Experiment [5] deals with T3, mouse IL-18 (biotinylated control protein) (mouse, UniProt P70380 36-192, biotinylated (site not stated)).
T3 sequence (looked up): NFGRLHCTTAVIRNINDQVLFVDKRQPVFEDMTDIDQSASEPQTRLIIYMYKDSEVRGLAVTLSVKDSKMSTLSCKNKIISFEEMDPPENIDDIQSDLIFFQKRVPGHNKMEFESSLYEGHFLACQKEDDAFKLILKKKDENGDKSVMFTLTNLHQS
Nature of the experiment: neutravidin capture ELISA. As to the method: as §1

For experiment [6], the target named is rat transferrin (biotinylated control protein) (rat, UniProt P12346 20-698, biotinylated (site not stated)). Nature of the experiment: neutravidin capture ELISA. As to the method: as §1
Experiment [7] addresses T4, mouse IL-23 (biotinylated control protein) (mouse, UniProt Q9EQ14 22-196; P43432 23-335, biotinylated (site not stated)).
T4 sequence (looked up) 1: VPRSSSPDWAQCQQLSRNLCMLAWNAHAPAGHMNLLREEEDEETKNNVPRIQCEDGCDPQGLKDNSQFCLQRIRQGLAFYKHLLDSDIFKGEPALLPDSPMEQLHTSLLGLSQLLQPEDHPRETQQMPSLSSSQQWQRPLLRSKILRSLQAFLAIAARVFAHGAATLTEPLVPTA
T4 sequence (looked up) 2: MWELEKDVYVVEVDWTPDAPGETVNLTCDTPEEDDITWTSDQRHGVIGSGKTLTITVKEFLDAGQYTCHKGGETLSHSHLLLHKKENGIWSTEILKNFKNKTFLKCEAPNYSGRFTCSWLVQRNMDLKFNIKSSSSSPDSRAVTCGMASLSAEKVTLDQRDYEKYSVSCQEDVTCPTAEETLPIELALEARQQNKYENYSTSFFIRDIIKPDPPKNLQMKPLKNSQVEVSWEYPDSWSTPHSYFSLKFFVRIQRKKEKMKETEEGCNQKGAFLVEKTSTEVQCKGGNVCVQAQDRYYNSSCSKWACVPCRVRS
Nature of the experiment: neutravidin capture ELISA. The method, then: as §1

Chain of rat transferrin (biotinylated control protein) (P12346 20-698 limits assumed): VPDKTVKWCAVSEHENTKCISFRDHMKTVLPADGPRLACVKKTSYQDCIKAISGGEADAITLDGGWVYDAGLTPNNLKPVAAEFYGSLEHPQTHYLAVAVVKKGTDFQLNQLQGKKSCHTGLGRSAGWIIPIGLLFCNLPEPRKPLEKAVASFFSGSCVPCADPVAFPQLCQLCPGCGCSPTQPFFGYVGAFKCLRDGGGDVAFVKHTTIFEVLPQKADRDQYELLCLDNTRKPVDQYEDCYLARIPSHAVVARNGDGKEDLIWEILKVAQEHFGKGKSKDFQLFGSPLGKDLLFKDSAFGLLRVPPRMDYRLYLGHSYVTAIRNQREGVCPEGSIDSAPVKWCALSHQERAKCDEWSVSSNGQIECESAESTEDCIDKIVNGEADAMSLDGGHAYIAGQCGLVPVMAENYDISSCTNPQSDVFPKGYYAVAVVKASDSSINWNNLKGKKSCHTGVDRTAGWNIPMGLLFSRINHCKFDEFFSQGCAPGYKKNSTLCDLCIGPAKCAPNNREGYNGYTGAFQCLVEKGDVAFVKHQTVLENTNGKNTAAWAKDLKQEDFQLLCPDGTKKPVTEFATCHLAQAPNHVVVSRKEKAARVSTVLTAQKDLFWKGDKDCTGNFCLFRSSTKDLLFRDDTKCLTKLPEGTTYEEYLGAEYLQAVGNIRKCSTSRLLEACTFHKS

B1: PHD 191 (format not stated in the assay) (antibody, V domains shown)
VH: QVELVQSGAEVKKPGSSVKVSCKASGGTFSAIHWVRQAPGQGLEWMGGIIPIFGMADYAQKFQGRVTITADESTSTAYMELSSLRSEDTAVYYCARTDYGFRALDYWGQGTLVTVSS
VL: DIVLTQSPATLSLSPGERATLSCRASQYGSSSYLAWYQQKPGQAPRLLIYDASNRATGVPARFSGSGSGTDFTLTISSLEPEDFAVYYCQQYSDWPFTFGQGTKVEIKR
Molecule B1 displayed an IC50 in experiment [1] of 48.5 nM. Besides, the inhibition constant Ki in experiment [2] was roughly 20 nM. For the same molecule, the “IC50 of inhibition of GLP-1 dependent cAMP accumulation (0.3 nM GLP-1, HEK293F cells over-expressing human GLP-1R)” value in experiment [3] was 3.3 nM.

B2: PHD 191 mAb, human IgG1 / human kappa (antibody, V domains shown)
VH: QVELVQSGAEVKKPGSSVKVSCKASGGTFSAIHWVRQAPGQGLEWMGGIIPIFGMADYAQKFQGRVTITADESTSTAYMELSSLRSEDTAVYYCARTDYGFRALDYWGQGTLVTVSS
VL: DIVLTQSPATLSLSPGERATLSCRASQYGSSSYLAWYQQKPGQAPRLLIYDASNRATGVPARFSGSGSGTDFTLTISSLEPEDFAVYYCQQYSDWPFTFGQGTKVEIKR
notes: The human IgG1/kappa format is inferred from the goat anti-human IgG (H+L) detection antibody
As for B2, the binding result in experiment [4], in experiment [5], in experiment [6] and in experiment [7] was “no binding (tested: starting at 5 µg/ml)” throughout.
